Consider nine molecules from patent US20220187308A1 (published 2022).

Where a chain is given by its changes, count along the chain named.

T1: soluble human IL-6 receptor (human, UniProt P08887 20-357)
T1 construct: range 1-357; The stated range begins at position 1, so it includes the signal peptide; no cleavage site is stated; also called hsIL-6R
T1 sequence (looked up): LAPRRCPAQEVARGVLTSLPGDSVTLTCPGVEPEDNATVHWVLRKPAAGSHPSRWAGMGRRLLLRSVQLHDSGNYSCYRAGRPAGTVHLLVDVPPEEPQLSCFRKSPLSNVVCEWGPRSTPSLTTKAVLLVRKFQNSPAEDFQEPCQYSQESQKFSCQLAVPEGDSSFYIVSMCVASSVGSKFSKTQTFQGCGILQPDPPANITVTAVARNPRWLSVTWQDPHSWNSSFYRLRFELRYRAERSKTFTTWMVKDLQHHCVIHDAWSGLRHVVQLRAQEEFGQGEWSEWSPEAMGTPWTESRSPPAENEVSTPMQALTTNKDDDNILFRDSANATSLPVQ

T2: biotinylated human HMGB1-Avi (human, UniProt P09429 2-215, biotin added at the C-terminal Avitag sequence by biotin ligase (BirA))
T2 construct: also called biotin-labeled hHMGB1; hHMGB1-Avitag
T2 sequence: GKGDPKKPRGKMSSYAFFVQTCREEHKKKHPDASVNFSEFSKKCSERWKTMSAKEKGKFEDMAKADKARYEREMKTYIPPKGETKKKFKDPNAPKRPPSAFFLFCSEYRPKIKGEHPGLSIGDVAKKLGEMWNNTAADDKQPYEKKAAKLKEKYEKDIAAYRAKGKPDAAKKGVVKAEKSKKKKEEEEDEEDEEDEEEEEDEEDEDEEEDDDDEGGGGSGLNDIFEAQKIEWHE

T3: human HMGB1 (human, UniProt P09429 2-215)
T3 construct: Expressed in FreeStyle 293 cells and purified; analyte in the Biacore assay of step (26-5); also called hHMGB1; recombinant human HMGB1
T3 sequence: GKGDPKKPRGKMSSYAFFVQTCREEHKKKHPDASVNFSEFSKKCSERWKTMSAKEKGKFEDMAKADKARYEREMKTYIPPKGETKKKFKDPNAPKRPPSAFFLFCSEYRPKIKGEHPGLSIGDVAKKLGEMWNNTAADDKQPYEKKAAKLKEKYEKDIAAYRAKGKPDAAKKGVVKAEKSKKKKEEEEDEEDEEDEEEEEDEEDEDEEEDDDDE

B1: H54/L28-IgG1 (antibody, V domains shown)
VH: QVQLQESGPGLVKPSETLSLTCAVSGYSISDDQAWSWVRQPPGEGLEWIGYISYSGITNYNPSLKGRVTISRDTSKNQFSLKLSSVTAADTAAYYCARSLARTTAMDYWGEGTLVTVSS
VL: DIQMTQSPSSLSASVGDSVTITCQASQDISSYLNWYQQKPGKAPELLIYYGSELHSGVPSRFSGSGSGTDFTFTISSLEAEDAATYYCQQGNSLPYTFGQGTKVEIER
notes: Control anti-human IL-6 receptor antibody described in WO2009125825; also called H54/L28-IgG1 antibody
B2: FH4-IgG1 (antibody, V domains shown)
VH: QVQLVQSGAEVKKPGSSVKVSCKASGGTFSSYAISWVRQAPGQGLEWMGGIIPIFGTANYAQKFQGRVTITADESTSTAYMELSSLRSEDTAVYYCARERDYYDSSGYYDAFDIWGQGTMVTVSS
VL: ETTVTQSPSFLSASVGDRVTITCITTTDIDDDMNWFQQEPGKAPKLLISEGNILRPGVPSRFSSSGYGTDFTLTISKLQPEDFATYYCLQSDNLPFTFGQGTKLEIKR
notes: also called FH4-IgG1 antibody
B3: 6RL #9-IgG1 (antibody, V domains shown)
VH: QVQLVQSGAEVKKPGASVKVSCKASGYTFTSYYMHWVRQAPGQGLEWMGIINPSGGSTSYAQKFQGRVTMTRDTSTSTVYMELSSLRSEDTAVYYCARDDPGGGEYYFDYWGQGTLVTVSS
VL: QSVLTQPPSVSGAPGQRVTISCTGSRSNMGAGYDVHWYQLLPGAAPKLLISHNTHRPSGVPDRFSGSKSGASASLAITGLQAEDEADYYCQSHDSSLSAVVFGGGTKLTVLS
notes: also called 6RL #9 antibody; 6RL #9-IgG1 antibody
B4: HM_3_2_R_054 (antibody, human IgG1, kappa, V domains shown)
VH: QVQLVQSGAEVKKPGSSVKVSCKASGGTFSSYAISWVRQAPGQGLEWMGGIIPIFGTANYAQKFQGRVTITADESTSTAYMELSSLRSEDTAVYYCARDNRTLTYYDFWSGYSFWDAFDIWGQGTMVTVSS
VL: DIQMTQSPSSLSASVGDRVTITCRASQSIHSHLAWYQQKPGKAPKLLIYGASHLQSGVPSRFSGSGSGTDFTLTISSLQPEDFATYYCQQRHSYPLTFGQGTKVEIKR
notes: From His library 1; also called HM_3_2_R_054 antibody
B5: HM_4_1_R_001 (antibody, human IgG1, kappa, V domains shown)
VH: EVQLVESGGGLVQPGGSLRLSCAASGFTFSNYEMNWVRQAPGKGLEWISYISSSGRTFSYADSVKGRFTISRDNAKNSLYLQMNSLRAEDTAVYYCARDSGYSDGWYPSWFDSWGQGTLVTVSS
VL: B4 VL with H30N, G50H, H53N, R91H, H92S, L96Y
notes: From His library 1; also called HM_4_1_R_001 antibody; HM_4_1R_001 antibody
B6: HM_3_2_R_017 (antibody, human IgG1, kappa, V domains shown)
VH: QVQLQESGPGLVKPSETLSLTCSVSGGPISSSGYYWGWIRQPPGKGLEWIGTVYFNGDTYYNPSLKSRVTISVDTSKNQFSLKLNSVTAADTAVYYCAREEGYYYYYMDVWGKGTTVTVSS
VL: B4 VL with H30N, A34N, R91S
notes: From His library 1; also called HM_3_2_R_017 antibody
B7: mIAP1B3-3_#024 (antibody, human IgG1, kappa, V domains shown)
VH: QVQLQESGPGLVKPSQTLSLTCAVSGGSISKTYSYWAWIRQHPVKGLEWIGYISYGGGTHYNPSLKSRVTISSDTSKNHFSLNLNSVTAADTAVYYCARSGFRVFGAFDIWGQGTMVTVSS
VL: B4 VL with H30R, A34N, G50D, R91H, H92Y, S93N, Y94S
notes: From His library 1; tested from the culture supernatant of 293-F cells
B8: mIAP1B3-3_#130 (antibody, human IgG1, kappa, V domains shown)
VH: QVQLQESGPGLVKPSETLSLTCTVSGGSISSSSYYWGWIRQPPGKGLEWIGSIYYSGSTYYNPSLKSRVTISVDTSKNQFSLKLSSVTAADTAVYYCARHGPSGSYYAFDIWGQGTMVTVSS
VL: B4 VL with H30S, A34N, G50K, S93H, Y94S
notes: as for B7
B9: mIAP1B3-3_#230 (antibody, human IgG1, kappa, V domains shown)
VH: QVQLQQSGPGLVKPSESLSLTCNVSGYYISSGYYWGWIRQPPGKGLEWIGSIYPSGTSHYNPSLKSRVTISLDTSKNQFSLKLSSLSAADTAVYYCARAGVIAGGPRTYAFDIWGQGTTVTVSS
VL: B4 VL with H30R, G50K, R91S, S93H, Y94S
notes: as for B7

One assay has as its target T1, soluble human IL-6 receptor. The experiment in a line: SPR (Biacore T100); ratio of the KD values at 3 µM and 2 mM CaCl2. The protocol:
The antigen-antibody reaction was kinetically analyzed in solutions of 2 mM and 3 μM calcium ion concentrations as high-calcium ion concentration and low-calcium ion concentration conditions, respectively. Each antibody of interest was captured onto Sensor chip CM4 (GE Healthcare Bio-Sciences Corp.) with protein A (Invitrogen Corp.) immobilized thereon in an appropriate amount by the amine coupling method. Two types of buffer solutions were used as running buffers: 10 mM ACES, 150 mM NaCl, 0.05% (w/v) Tween 20, and 2 mM CaCl₂ (pH 7.4); and 10 mM ACES, 150 mM NaCl, 0.05% (w/v) Tween 20, and 3 […] CaCl₂ (pH 7.4). The human IL-6 receptors were also diluted with each of these buffers. Assay was all carried out at 37° C.
(In general: Surface plasmon resonance follows binding to a sensor surface in real time, without labels.)
B1: the “Ca dependence (KD at 3 µM CaCl2 against KD at 2 mM CaCl2)” value (from here on “Ca dependence”) was roughly 1 times.

Take B2: the “Ca dependence” value was no less than 60 times.

Regarding B3, the “Ca dependence” value was no less than 120 times.

The target of the next assay is T2, biotinylated human HMGB1-Avi. The experiment in a line: phage ELISA (Fab displayed on phage) on biotin-labeled hHMGB1 on a StreptaWell plate, pH 7.6 against pH 5.5. The protocol: A phage-containing culture supernatant was collected by phage culture according to a conventional method (Methods Mol. Biol. (2002) 178, 133-145) from each single colony of the E. coli obtained after the third and fourth rounds of panning carried out in the step (26-2). After addition of BSA and CaCl₂) (final concentration: 4% BSA and 1.2 mM calcium ion), the phage-containing culture supernatant was subjected to ELISA by the following procedures: StreptaWell 96 microtiter plate (F. Hoffmann-La Roche Ltd.) was coated for 4 hours or longer with 100 μL of PBS containing biotin-labeled hHMGB1. Each well of the plate was washed with PBST to remove unbound antigens. Then, the well was blocked with 250 μL of 4% BSA-TBS (50 mM Tris, 300 mM NaCl, 2.5 mM CaCl₂), and 4% BSA) for 1 hour or longer. […] Each well was washed with 1.2 mM CaCl₂)/TBST (pH 7.6), and 1.2 mM CaCl₂)/TBS (pH 7.6) or 1.2 mM CaCl₂)/150 mM NaCl/50 mM MES (pH 5.5) was added thereto. The plate was left standing at 37° C. for 30 minutes for incubation. After washing with 1.2 mM CaCl₂)/TBST (pH 7.6), HRP-conjugated anti-M13 antibodies (Amersham Pharmacia Biotech Inc.) diluted with 4% BSA-TBS were added to each well. The plate was incubated for 1 hour. After washing with 1.2 mM CaCl₂)/TBST (pH 7.6), TMB single solution (Invitrogen Corp.) was added to the well. The chromogenic reaction of the solution in each well was terminated by the addition of sulfuric acid. Then, the developed color was assayed on the basis of absorbance at 450 nm.
For B4, the binding result is on record as “binds”.

Take B5: the binding result is “binds”.

Consider B6, for which the binding result is reported as “binds”.

A further assay addresses T3, human HMGB1. The experiment in a line: SPR (Biacore T100), antibody captured via protein A/G on CM4, hHMGB1 as analyte, 25 C, 1.2 mM CaCl2, pH 7.4 against pH 5.8. The protocol:
In order to judge the pH dependence of hHMGB1-binding activity of the antibodies HM_3_2_R_017 (heavy chain: SEQ ID NO: 131 and light chain: SEQ ID NO: 132), HM_3_2_R_054 (heavy chain: SEQ ID NO: 133 and light chain: SEQ ID NO: 134), and HM_4_1_R_001 (heavy chain: SEQ ID NO: 135 and light chain: SEQ ID NO: 136) obtained in the step (26-4), these antibodies were analyzed for their interaction with hHMGB1 using Biacore T100 (GE Healthcare Bio-Sciences Corp.). The interaction of antigen-antibody reaction was analyzed in solutions of pH 7.4 and pH 5.8 as neutral pH and acidic pH conditions, respectively. Approximately of 200 RU of each antibody of interest was captured onto Sensor chip CM4 (GE Healthcare Bio-Sciences Corp.) with protein A/G (Pierce Biotechnology Inc.) immobilized thereon in an appropriate amount by the amine coupling method. Two types of buffer solutions were used as running buffers: 20 mM ACES, 150 mM NaCl, 0.05% (w/v) Tween 20, and 1.2 mM CaCl₂) (pH 7.4); and 20 mM ACES, 150 mM NaCl, 0.05% (w/v) Tween 20, and 1.2 mM CaCl₂) (pH 5.8). hHMGB1 was also diluted with each of these buffers. Assay was all carried out at 25° C.
In the analysis on the interaction of antigen-antibody reaction using the HM_3_2_R_017 antibody, the HM_3_2_R_054 antibody, and the HM_4_1_R_001 antibody, the diluted hHMGB1 solution or a blank running buffer was injected at a flow rate of 10 μL/min for 60 seconds to […] onto the sensor chip. The HM_3_2_R_017 antibody, the HM_3_2_R_054 antibody, and the HM_4_1_R_001 antibody were interacted with hHMGB1. Then, 10 mM glycine-HCl (pH 1.5) was injected thereto at a flow rate of 30 μL/min for 30 seconds to regenerate the sensor chip.
Regarding B4, the binding result was “binds”.

For the molecule B5, the binding result is “binds”.

For B6, the binding result is given as “binds”.

For the next assay, the target named is T4, GC-mIgA (mouse).
T4 construct: also called recombinant mouse IgA GC-mIgA; mouse IgA
T4 sequence (light, as listed by the source): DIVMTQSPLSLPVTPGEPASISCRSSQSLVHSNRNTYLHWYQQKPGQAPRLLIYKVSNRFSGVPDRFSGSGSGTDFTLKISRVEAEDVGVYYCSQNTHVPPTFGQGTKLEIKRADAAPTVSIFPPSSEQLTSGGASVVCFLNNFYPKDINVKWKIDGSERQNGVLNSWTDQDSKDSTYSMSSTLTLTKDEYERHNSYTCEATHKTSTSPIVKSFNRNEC
The experiment in a line: SPR (Biacore A100), antibody from culture supernatant captured via protein A/G on CM5, GC-mIgA as analyte, 25 C, 1.2 mM CaCl2, pH 7.4 against pH 5.8. The protocol:
The culture supernatant obtained by the above method was used to analyze GC-mIgA-binding ability using Biacore A100. Antibodies in the culture supernatant were captured onto Sensor chip CM5 (GE Healthcare Bio-Sciences Corp.) with protein A/G (Pierce Biotechnology Inc.) immobilized thereon in an appropriate amount by the amine coupling method. Two types of buffer solutions were used as running buffers: 20 mM ACES, 150 mM NaCl, 0.05% (w/v) Tween 20, and 1.2 mM CaCl₂) (pH 7.4); and 20 mM ACES, 150 mM NaCl, 0.05% (w/v) Tween 20, and 1.2 mM CaCl₂) (pH 5.8). The interaction of antigen-antibody reaction was analyzed under neutral pH and acidic pH conditions. GC-mIgA was also diluted with each of these buffers and injected at a flow rate of 10 μL/min for 60 seconds to interact the antigen with the antibodies captured on the sensor chip. Then, 10 mM glycine-HCl (pH 1.5) was injected thereto at a flow rate of 30 μL/min for 30 seconds to regenerate the sensor chip. Assay was all carried out at 25° C.
With B7, the binding result was “binds”. Regarding B8, the binding result is reported as “binds”. B9: the binding result was “binds”.
